Data: the supplement of paper PMC5998384

How the values were obtained:
HeLa Kyoto [1] = test: melting temperature (median over replicates), in situ; higher = more thermally stable
HeLa Kyoto [2] = test: thermal stability score vs G1/S (z-score of summed log2 fold changes over temperatures); higher = more thermally stable than in G1/S
HeLa Kyoto [3] = test: solubility change mitosis vs G1/S (difference of NP-40 vs SDS log2 ratios) (log2 ratio difference); higher = more soluble in mitosis
HeLa Kyoto [4] = test: solubility in G1/S (NP-40 vs SDS abundance) (log2 ratio); higher = more soluble; conditions: cell cycle stage: G1/S
[5] = cell cycle stage: early G1 (4.5 h after nocodazole release)
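For melting temperature (median over replicates), in situ in this document: HeLa Kyoto cells synchronized by double thymidine or nocodazole block, proteins quantified by TMT10plex mass spectrometry, three independent biological replicates.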
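For solubility change mitosis vs G1/S (difference of NP-40 vs SDS log2 ratios) in this document: synchronized HeLa Kyoto cells (double thymidine block for G1/S, nocodazole release for mitosis), protein amounts in NP-40 versus SDS lysates quantified by mass spectrometry, three biological replicates.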
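For solubility in G1/S (NP-40 vs SDS abundance) in this document: HeLa Kyoto cells arrested at G1/S by double thymidine block, proteins quantified by TMT10plex mass spectrometry in mild NP-40 versus SDS extracts, three biological replicates.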
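For thermal stability score vs G1/S (z-score of summed log2 fold changes over temperatures) in this document: synchronized HeLa Kyoto cells, proteins quantified by TMT10plex mass spectrometry, three biological replicates, mitosis taken 0.5 h after nocodazole release, G1/S directly after double thymidine block.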

Sequence | melting temperature (HeLa Kyoto [1]; cell cycle stage: G1/S) | melting temperature (HeLa Kyoto [1]; cell cycle stage: mitosis) | thermal stability score (HeLa Kyoto [2]; [5]) | thermal stability score (HeLa Kyoto [2]; cell cycle stage: mitosis) | solubility change mitosis (log2) (HeLa Kyoto [3]) | solubility in G1/S (log2) (HeLa Kyoto [4])
MAASGAVEPGPPGAAVAPSPAPAPPPAPDHLFRPISAEDEEQQPTEIESLCMNCYCNGMTRLLLTKIPFFREIIVSSFSCEHCGWNNTEIQSAGRIQDQGVRYTLSVRALEDMNREVVKTDSAATRIPELDFEIPAFSQKGALTTVEGLITRAISGLEQDQPARRANKDATAERIDEFIVKLKELKQVASPFTLIIDDPSGNSFVENPHAPQKDDALVITHYNRTRQQEEMLGLQEEAPAEKPEEEDLRNEVLQFSTNCPECNAPAQTNMKLVQIPHFKEVIIMATNCENCGHRTNEVKSGGAVEPLGTRITLHITDASDMTRDLLKSETCSVEIPELEFELGMAVLGGKFTTLEGLLKDIRELVTKNPFTLGDSSNPGQTERLQEFSQKMDQIIEGNMKAHFIMDDPAGNSYLQNVYAPEDDPEMKVERYKRTFDQNEELGLNDMKTEGYEAGLAPQR [ZPR1] | 52.6 °C | 52.5 °C | -0.562 | -0.171 | -0.0376 | 0.433
MAASMCDVFSFCVGVAGRARVSVEVRFVSSAKGKGLFATQLIRKGETIFVERPLVAAQFLWNALYRYRACDHCLRALEKAEENAQRLTGKPGQVLPHPELCTVRKDLHQNCPHCQVMYCSAECRLAATEQYHQVLCPGPSQDDPLHPLNKLQEAWRSIHYPPETASIMLMARMVATVKQAKDKDRWIRLFSQFCNKTANEEEEIVHKLLGDKFKGQLELLRRLFTEALYEEAVSQWFTPDGFRSLFALVGTNGQGIGTSSLSQWVHACDTLELKPQDREQLDAFIDQLYKDIEAATGEFLNCEGSGLFVLQSCCNHSCVPNAETSFPENNFLLHVTALEDIKPGEEICISYLDCCQRERSRHSRHKILRENYLFVCSCPKCLAEADEPNVTSEEEEEEEEEEEGEPEDAELGDEMTDV [SMYD5] | 53.4 °C | 53.1 °C | 1.21 | -0.768 | -0.154 | -0.147
MAASMFYGRLVAVATLRNHRPRTAQRAAAQVLGSSGLFNNHGLQVQQQQQRNLSLHEYMSMELLQEAGVSVPKGYVAKSPDEAYAIAKKLGSKDVVIKAQVLAGGRGKGTFESGLKGGVKIVFSPEEAKAVSSQMIGKKLFTKQTGEKGRICNQVLVCERKYPRREYYFAITMERSFQGPVLIGSSHGGVNIEDVAAESPEAIIKEPIDIEEGIKKEQALQLAQKMGFPPNIVESAAENMVKLYSLFLKYDATMIEINPMVEDSDGAVLCMDAKINFDSNSAYRQKKIFDLQDWTQEDERDKDAAKANLNYIGLDGNIGCLVNGAGLAMATMDIIKLHGGTPANFLDVGGGATVHQVTEAFKLITSDKKVLAILVNIFGGIMRCDVIAQGIVMAVKDLEIKIPVVVRLQGTRVDDAKALIADSGLKILACDDLDEAARMVVKLSEIVTLAKQAHVDVKFQLPI [SUCLA2] | 49.7 °C | 49.8 °C | -0.13 | 1.1 | -0.0729 | 0.0965
MAASRWARKAVVLLCASDLLLLLLLLPPPGSCAAEGSPGTPDESTPPPRKKKKDIRDYNDADMARLLEQWEKDDDIEEGDLPEHKRPSAPVDFSKIDPSKPESILKMTKKGKTLMMFVTVSGSPTEKETEEITSLWQGSLFNANYDVQRFIVGSDRAIFMLRDGSYAWEIKDFLVGQDRCADVTLEGQVYPGKGGGSKEKNKTKQDKGKKKKEGDLKSRSSKEENRAGNKREDL [MESDC2] | 55.5 °C | 56.3 °C | 3.56 | 2.22 | -0.0464 | 0.269
MAATASAGAGGIDGKPRTSPKSVKFLFGGLAGMGATVFVQPLDLVKNRMQLSGEGAKTREYKTSFHALTSILKAEGLRGIYTGLSAGLLRQATYTTTRLGIYTVLFERLTGADGTPPGFLLKAVIGMTAGATGAFVGTPAEVALIRMTADGRLPADQRRGYKNVFNALIRITREEGVLTLWRGCIPTMARAVVVNAAQLASYSQSKQFLLDSGYFSDNILCHFCASMISGLVTTAASMPVDIAKTRIQNMRMIDGKPEYKNGLDVLFKVVRYEGFFSLWKGFTPYYARLGPHTVLTFIFLEQMNKAYKRLFLSG [SLC25A11] | 59.1 °C | 59.8 °C | -1.46 | -2.54 | -0.187 | -0.0956
MAATFFGEVVKAPCRAGTEDEEEEEEGRRETPEDREVRLQLARKREVRLLRRQTKTSLEVSLLEKYPCSKFIIAIGNNAVAFLSSFVMNSGVWEEVGCAKLWNEWCRTTDTTHLSSTEAFCVFYHLKSNPSVFLCQCSCYVAEDQQYQWLEKVFGSCPRKNMQITILTCRHVTDYKTSESTGSLPSPFLRALKTQNFKDSACCPLLEQPNIVHDLPAAVLSYCQVWKIPAILYLCYTDVMKLDLITVEAFKPILSTRSLKGLVKNIPQSTEILKKLMTTNEIQSNIYT [PSMG1] | 54.7 °C | 54.4 °C | -0.428 | -1.27 | -0.142 | 0.0966
MAATGANAEKAESHNDCPVRLLNPNIAKMKEDILYHFNLTTSRHNFPALFGDVKFVCVGGSPSRMKAFIRCVGAELGLDCPGRDYPNICAGTDRYAMYKVGPVLSVSHGMGIPSISIMLHELIKLLYYARCSNVTIIRIGTSGGIGLEPGTVVITEQAVDTCFKAEFEQIVLGKRVIRKTDLNKKLVQELLLCSAELSEFTTVVGNTMCTLDFYEGQGRLDGALCSYTEKDKQAYLEAAYAAGVRNIEMESSVFAAMCSACGLQAAVVCVTLLNRLEGDQISSPRNVLSEYQQRPQRLVSYFIKKKLSKA [UPP1] | 56.8 °C | 56.3 °C | -4.67 | -3.64 | -0.279 | 0.102
MAATRSPTRARERERSGAPAAGSDQVHSWMLATSQALDTVWRMAKGFVMLAVSFLVAAICYFRRLHLYSGHKLKWWIGYLQRKFKRNLSVEAEVDLLSYCAREWKGETPRNKLMRKAYEELFWRHHIKCVRQVRRDNYDALRSVLFQIFSQGISFPSWMKEKDIVKLPEKLLFSQGCNWIQQYSFGPEKYTGSNVFGKLRKYVELLKTQWTEFNGIRDYHKRGSMCNTLFSDAILEYKLYEALKFIMLYQVTEVYEQMKTKKVIPSLFRLLFSRETSSDPLSFMMNHLNSVGDTCGLEQIDMFILGYSLEVKIKVFRLFKFNSRDFEVCYPEEPLRDWPEISLLTENDRHYHIPVF [FAM105A] | – | 52.7 °C | -0.702 | -1.45 | -0.0882 | -0.437
MAATSLMSALAARLLQPAHSCSLRLRPFHLAAVRNEAVVISGRKLAQQIKQEVRQEVEEWVASGNKRPHLSVILVGENPASHSYVLNKTRAAAVVGINSETIMKPASISEEELLNLINKLNNDDNVDGLLVQLPLPEHIDERRICNAVSPDKDVDGFHVINVGRMCLDQYSMLPATPWGVWEIIKRTGIPTLGKNVVVAGRSKNVGMPIAMLLHTDGAHERPGGDATVTISHRYTPKEQLKKHTILADIVISAAGIPNLITADMIKEGAAVIDVGINRVHDPVTAKPKLVGDVDFEGVRQKAGYITPVPGGVGPMTVAMLMKNTIIAAKKVLRLEEREVLKSKELGVATN [MTHFD2] | 52.5 °C | 53.3 °C | 0.31 | -0.889 | -0.0584 | 0.505
MAAVAALQLGLRAAGLGRAPASAAWRSVLRVSPRPGVAWRPSRCGSSAAEASATKAEDDSFLQWVLLLIPVTAFGLGTWQVQRRKWKLNLIAELESRVLAEPVPLPADPMELKNLEYRPVKVRGCFDHSKELYMMPRTMVDPVREAREGGLISSSTQSGAYVVTPFHCTDLGVTILVNRGFVPRKKVNPETRQKGQIEGEVDLIGMVRLTETRQPFVPENNPERNHWHYRDLEAMARITGAEPIFIDANFQSTVPGGPIGGQTRVTLRNEHLQYIVTWYGLSAATSYLWFKKFLRGTPGV [SURF1] | 52.2 °C | 52.2 °C | -0.638 | -0.542 | -0.105 | 0.298
MAAVAATAAAKGNGGGGGRAGAGDASGTRKKKGPGPLATAYLVIYNVVMTAGWLVIAVGLVRAYLAKGSYHSLYYSIEKPLKFFQTGALLEILHCAIGIVPSSVVLTSFQVMSRVFLIWAVTHSVKEVQSEDSVLLFVIAWTITEIIRYSFYTFSLLNHLPYLIKWARYTLFIVLYPMGVSGELLTIYAALPFVRQAGLYSISLPNKYNFSFDYYAFLILIMISYIPIFPQLYFHMIHQRRKILSHTEEHKKFE [HACD2] | 54.2 °C | 55.4 °C | 0.894 | -0.449 | 0.15 | -0.368
MAAVDSFYLLYREIARSCNCYMEALALVGAWYTARKSITVICDFYSLIRLHFIPRLGSRADLIKQYGRWAVVSGATDGIGKAYAEELASRGLNIILISRNEEKLQVVAKDIADTYKVETDIIVADFSSGREIYLPIREALKDKDVGILVNNVGVFYPYPQYFTQLSEDKLWDIINVNIAAASLMVHVVLPGMVERKKGAIVTISSGSCCKPTPQLAAFSASKAYLDHFSRALQYEYASKGIFVQSLIPFYVATSMTAPSNFLHRCSWLVPSPKVYAHHAVSTLGISKRTTGYWSHSIQFLFAQYMPEWLWVWGANILNRSLRKEALSCTA [HSDL1] | 57.5 °C | 54.3 °C | -1.62 | -2.08 | -0.155 | -0.127
